Measurements from patent publication US10981967B2, “Long-acting conjugate of triple glucagon/GLP-1/GIP receptor agonist” (HANMI PHARM. CO., LTD., priority 2015, dated 2021).
Positions of bridges follow the written chain, without caps; N, C: chain ends. Non-standard residues stand in square brackets, D forms with d. No end group written: not given here. Aib = CC(C)(N)C(=O)O

Assays:
Assay type in all cases: cell-based
human GLP-1 receptor = target: T1, human GLP-1 receptor (Homo sapiens, UniProt P43220); assay: In vitro cAMP activity (LANCE cAMP kit) in CHO cells expressing human GLP-1 receptor, relative to human GLP-1; conditions: long-acting conjugates; relative potency from cAMP EC50 compared to human GLP-1, CHO cells
T1 construct: expressed in transfected cells; host or cells: Chinese hamster ovary (CHO)
Protocol: (§1) The activities of the triple agonists and long-acting conjugates thereof prepared in Examples 1 and 2 were measured by a method of measuring in vitro cellular activities using cell lines, where a GLP-1 receptor, a glucagon (GCG) receptor, and a GIP receptor are transformed, respectively.
(§2) Each of the cell lines above is one in which the genes for human GLP-1 receptor, human GCG receptor, and human GIP receptor were transformed in Chinese hamster ovary (CHO), respectively, and can be expressed therein, and is thus suitable for the measurement of the activities of GLP-1, GCG, and GIP. Accordingly, the activity for each part was measured using the respective transformed cell line.
(§3) For the measurement of the GLP-1 activities of the triple agonists and long-acting conjugates prepared in Examples 1 and 2, human GLP-1 was subjected to a 4-fold serial dilution from 50 nM to 0.000048 nM, and the triple agonists and long-acting conjugates thereof prepared in Examples 1 and 2 were subjected to a 4-fold serial dilution from 400 nM to 0.00038 nM. The culture solution was removed from the cultured CHO cells, in which the human GLP-1 receptor was expressed, and each of the serially-diluted materials was added to the CHO cells in an amount of 5 μL, respectively. Then, a buffer solution containing cAMP antibody was added thereto in an amount of 5 μL and cultured at room temperature for 15 minutes. Then, a detection mix containing a cell lysis buffer was added thereto in an amount of 10 μL for the lysis of the cells and reacted at room temperature for 90 minutes. The cell lysates, upon completion of the reaction, were applied to LANCE cAMP kit (PerkinElmer, USA) to calculate the EC50 value via accumulated cAMP, and the values were compared with each other.

human GCG receptor = target: T2, human GCG receptor (Homo sapiens, UniProt P47871); assay: In vitro cAMP activity (LANCE cAMP kit) in CHO cells expressing human GCG receptor, relative to human GCG; conditions: long-acting conjugates, relative potency from cAMP EC50 compared to human GCG
T2 construct: expressed in transfected cells; host or cells: Chinese hamster ovary (CHO)
Protocol: as §1, §2
as §3, with “GCG” for “GLP-1”

human GIP receptor = target: T3, human GIP receptor (Homo sapiens, UniProt P48546); assay: In vitro cAMP activity (LANCE cAMP kit) in CHO cells expressing human GIP receptor, relative to human GIP; conditions: long-acting conjugates, relative potency from cAMP EC50 compared to human GIP
T3 construct: expressed in transfected cells; host or cells: Chinese hamster ovary (CHO)
T3 sequence (P48546 22-466): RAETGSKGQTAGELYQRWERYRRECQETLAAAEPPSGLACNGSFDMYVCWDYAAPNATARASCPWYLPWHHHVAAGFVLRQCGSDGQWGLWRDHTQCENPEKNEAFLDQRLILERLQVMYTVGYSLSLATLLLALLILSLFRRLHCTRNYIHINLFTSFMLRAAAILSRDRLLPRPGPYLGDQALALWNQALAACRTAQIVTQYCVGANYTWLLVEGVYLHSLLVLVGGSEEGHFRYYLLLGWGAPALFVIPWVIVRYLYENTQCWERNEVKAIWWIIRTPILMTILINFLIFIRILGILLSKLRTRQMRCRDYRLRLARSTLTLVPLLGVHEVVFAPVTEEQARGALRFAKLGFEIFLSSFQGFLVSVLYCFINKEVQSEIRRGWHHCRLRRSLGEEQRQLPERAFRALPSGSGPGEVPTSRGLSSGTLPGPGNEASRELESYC
Protocol: as §1, §2
as §3, with “GIP” for “GLP-1”

T2 sequence (P47871 26-477): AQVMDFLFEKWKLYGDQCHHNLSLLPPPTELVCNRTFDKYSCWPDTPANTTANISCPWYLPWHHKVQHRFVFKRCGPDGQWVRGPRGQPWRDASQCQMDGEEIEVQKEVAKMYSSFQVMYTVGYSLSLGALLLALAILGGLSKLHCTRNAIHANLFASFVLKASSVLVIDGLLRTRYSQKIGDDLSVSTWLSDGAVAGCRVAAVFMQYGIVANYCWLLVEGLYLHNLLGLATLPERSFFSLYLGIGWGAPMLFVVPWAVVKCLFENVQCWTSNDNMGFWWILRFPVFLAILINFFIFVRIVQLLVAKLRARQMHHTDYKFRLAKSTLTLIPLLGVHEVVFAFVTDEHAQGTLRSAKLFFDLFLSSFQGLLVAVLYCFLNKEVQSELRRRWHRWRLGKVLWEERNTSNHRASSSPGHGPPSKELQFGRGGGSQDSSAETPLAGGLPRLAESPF
T1 sequence (P43220 24-463): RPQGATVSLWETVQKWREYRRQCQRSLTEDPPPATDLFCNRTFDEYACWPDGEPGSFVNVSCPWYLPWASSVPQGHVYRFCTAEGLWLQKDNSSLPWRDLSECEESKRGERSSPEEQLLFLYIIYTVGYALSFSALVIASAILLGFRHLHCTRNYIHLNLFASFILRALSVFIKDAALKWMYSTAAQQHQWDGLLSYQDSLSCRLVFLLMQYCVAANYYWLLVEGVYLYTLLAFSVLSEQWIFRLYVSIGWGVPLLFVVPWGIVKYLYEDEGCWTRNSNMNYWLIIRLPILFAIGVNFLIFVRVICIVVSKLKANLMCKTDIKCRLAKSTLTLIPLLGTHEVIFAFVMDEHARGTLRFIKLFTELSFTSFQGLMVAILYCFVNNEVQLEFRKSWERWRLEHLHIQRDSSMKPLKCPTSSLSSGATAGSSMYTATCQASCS

Substance | In vitro activity compared to native peptide (%) vs. GLP-1 (human GLP-1 receptor) | In vitro activity compared to native peptide (%) vs. Glucagon (human GCG receptor) | In vitro activity compared to native peptide (%) vs. GIP (human GIP receptor)
21 (Y[Aib]QGTFTSDYSKYLDECRAKEFVQWLLDHHPSSGQPPPS; bridge 16-20) [compound 21] | 0.1% | 1.6% | 0.2%
22 (Y[Aib]QGTFTSDYSKCLDEKRAKEFVQWLLDHHPSSGQPPPS; bridge 16-20) [compound 22] | 0.1% | 0.9% | 0.5%
42 (Y[Aib]QGTFTSDYSKYLDEKRAKEFVQWLLDHHPSSGQPPPSC; bridge 16-20) [compound 42] | 3.1% | 23.1% | 1.2%
43 (Y[Aib]QGTFTSDYSKYLDEKRAKEFVQWLLDHHCSSGQPPPS; bridge 16-20) [compound 43] | 2.1% | 13.5% | 0.6%
50 (H[Aib]QGTFTSDYSKYLDEKRAKEFVQWLLDHHPSSGQPPPSC; bridge 16-20) [compound 50] | 15.4% | 6.9% | 0.7%
77 (Y[Aib]QGTFTSDYSKYLDEKAAKDFVQWLLDHHPSSGQPPPSC; bridge 16-20) [compound 77] | 6.7% | 1.7% | 6.6%
96 (Y[Aib]QGTFTSDYSKYLDEKRAKEFVQWLLDHCPSSGQPPPS; bridge 16-20) [compound 96] | 0.3% | 4.0% | 0.3%
